Positions count from the first letter of the chain named. Numbers in names are those of the source.
T1: Human NKp30, construct BKM0179 (human, UniProt O14931 19-135, limits assumed)
T1 construct: Immobilized on a CM5 chip via anti-mouse Fc antibody, so it likely carries a mouse Fc; also called Human Nkp30 (BKM0179)
T1 sequence (looked up): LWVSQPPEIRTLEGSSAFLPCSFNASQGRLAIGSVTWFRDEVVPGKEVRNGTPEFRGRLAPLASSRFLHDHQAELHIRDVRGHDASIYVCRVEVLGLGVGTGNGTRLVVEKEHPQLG

B1: BJM0578 (bivalent) (antibody, V domains shown)
VH: QVQLVQSGAEVKKPGSSVKVSCKASGYTFTGYVMHWVRQAPGQGLEWMGFIIPIFGTANYAQKFQGRVTITSDKSTTTAYMELSSLRSEDTAVYYCARGAGYNFDGAYRFFDFWGQGTLVTVSS
VL: DVVMTQSPLSLPVTLGQPASISCRSSQRLVHSNGNTYLHWYQQRPGQSPRLLIYRVSNRFPGVPDRFSGSGSGTDFTLKISRVEAEDVGVYFCSQSTHVPYTFGGGTKVEIK
notes: Bivalent construct with a human Fc
B2: BIM0460 (bivalent) (antibody, V domains shown)
VH: QVQLVQSGAEVKKPGSSVKVSCKASGYTFTGYVMHWVRQAPGQGLEWMGFINPYNDDIQSNERFRGRVTITSDKSTTTAYMELSSLRSEDTAVYYCARGAGYNFDGAYRFFDFWGQGTLVTVSS
VL: B1 VL
notes: Bivalent construct with a human Fc (captured via anti-human Fc antibody)
B3: BKM0191 (single arm) (antibody, V domains shown)
VH: B1 VH
VL: B1 VL with G34A
notes: Single arm anti-TRBC1 construct with human Fc; also called G29A
B4: BKM0192 (single arm) (antibody, V domains shown)
VH: B1 VH
VL: B1 VL with T36A
notes: Single arm anti-TRBC1 construct with human Fc; also called T31A
B5: BKM0193 (single arm) (antibody, V domains shown)
VH: B1 VH
VL: B1 VL with G34A, T36A
notes: Single arm anti-TRBC1 construct with human Fc; also called G29A T31A
B6: BKM0194 (single arm) (antibody, V domains shown)
VH: B1 VH
VL: B1 VL with N33G
notes: Single arm anti-TRBC1 construct with human Fc; also called N28G
B7: BKM0195 (single arm) (antibody, V domains shown)
VH: B1 VH
VL: B1 VL with N35S
notes: Single arm anti-TRBC1 construct with human Fc; also called N30S
B8: BKM0196 (single arm) (antibody, V domains shown)
VH: B1 VH
VL: B1 VL with N33G, N35S
notes: Single arm anti-TRBC1 construct with human Fc; also called N28G N30S
B9: BKM0313 (TRBC2/NKp30 bispecific) (bispecific antibody, human IgG1, kappa, N297A)
heavy: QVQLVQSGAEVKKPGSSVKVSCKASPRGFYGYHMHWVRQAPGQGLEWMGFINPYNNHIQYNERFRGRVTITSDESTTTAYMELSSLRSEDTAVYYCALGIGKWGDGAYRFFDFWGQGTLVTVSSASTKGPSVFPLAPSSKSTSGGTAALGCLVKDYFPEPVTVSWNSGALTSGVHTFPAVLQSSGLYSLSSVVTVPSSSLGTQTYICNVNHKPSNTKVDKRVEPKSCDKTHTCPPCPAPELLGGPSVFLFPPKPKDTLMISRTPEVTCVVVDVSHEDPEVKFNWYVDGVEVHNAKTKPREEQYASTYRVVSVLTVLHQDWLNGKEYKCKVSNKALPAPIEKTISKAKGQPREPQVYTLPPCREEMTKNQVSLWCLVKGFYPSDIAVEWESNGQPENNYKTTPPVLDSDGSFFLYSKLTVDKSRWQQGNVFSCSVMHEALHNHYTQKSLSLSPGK
light: DVVMTQSPLSLPVTLGQPASISCRSSKNLVHSNGRTYLQWYQQRPGQSPRLLIYRVSNRFPGVPDRFSGSGSGTDFTLKISRVEAEDVGVYFCSQSTREPYTFGGGTKVEIKRTVAAPSVFIFPPSDEQLKSGTASVVCLLNNFYPREAKVQWKVDNALQSGNSQESVTEQDSKDSTYSLSSTLTLSKADYEKHKVYACEVTHQGLSSPVTKSFNRGEC
scFv: EIQLLESGGGLVQPGGSLRLSCAVSGFSITTTGYHWNWVRQAPGKGLEWVGYIYSSGSTSYNPSLKSRFTISRDTSKNTFYLQMNSLRAEDTAVYYCARGDWHYFDYWGQGTMVTVSSGGGGSGGGGSGGGGSGGGGSDSVTTQSPLSLPVTLGQPASISCSGEKLSDKYVHWYQQRPGQSPRMLIYENDRRPSGVPDRFSGSNSGNDATLKISRVEAEDVGVYFCQFWDSTNSAVFGGGTKVEIKDKTHTCPPCPAPELLGGPSVFLFPPKPKDTLMISRTPEVTCVVVDVSHEDPEVKFNWYVDGVEVHNAKTKPREEQYASTYRVVSVLTVLHQDWLNGKEYKCKVSNKALPAPIEKTISKAKGQPREPQVCTLPPSREEMTKNQVSLSCAVKGFYPSDIAVEWESNGQPENNYKTTPPVLDSDGSFFLVSKLTVDKSRWQQGNVFSCSVMHEALHNHYTQKSLSLSPGK
notes: Knob chain TRBC2 Fab-Fc and hole chain NKp30 scFv-Fc; also called Anti-TRBC2-NKp30-BIS-9
B10: BKM0314 (TRBC2/NKp30 bispecific) (bispecific antibody, human IgG1, kappa, N297A)
heavy: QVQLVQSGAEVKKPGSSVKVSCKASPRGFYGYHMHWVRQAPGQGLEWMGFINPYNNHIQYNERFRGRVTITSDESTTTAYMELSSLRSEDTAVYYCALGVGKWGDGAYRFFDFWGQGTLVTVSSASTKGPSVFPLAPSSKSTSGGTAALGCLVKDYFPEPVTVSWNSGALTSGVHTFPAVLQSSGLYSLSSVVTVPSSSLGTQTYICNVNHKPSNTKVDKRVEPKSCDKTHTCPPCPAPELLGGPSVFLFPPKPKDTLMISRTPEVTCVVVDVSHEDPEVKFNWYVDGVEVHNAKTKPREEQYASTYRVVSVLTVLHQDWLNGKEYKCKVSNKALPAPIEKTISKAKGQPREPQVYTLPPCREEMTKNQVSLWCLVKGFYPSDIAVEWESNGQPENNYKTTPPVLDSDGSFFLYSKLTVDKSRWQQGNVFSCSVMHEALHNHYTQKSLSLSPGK
light: B9 light
scFv: B9 scFv
notes: Knob chain TRBC2 Fab-Fc and hole chain NKp30 scFv-Fc; also called Anti-TRBC2-NKp30-BIS-10
B11: BJM1078 (BJM0407 Parental) (antibody, V domains shown)
VH: EIQLLESGGGLVQPGGSLRLSCAVSGFSITTTGYHWNWVRQAPGKGLEWVGYIYSSGSTSYNPSLKSRFTISRDTSKNTFYLQMNSLRAEDTAVYYCARGDWHYFDYWGQGTMVTVSS
VL: SSETTQPPSVSVSPGQTASITCSGEKLSDKYVHWYQQKPGQSPVMVIYENDRRPSGIPERFSGSNSGNTATLTISGTQAMDEADYFCQFWDSTNSAVFGGGTQLTVL
B12: BJM1079 (BJM0411 Parental) (antibody, V domains shown)
VH: B11 VH
VL: DSVTTQSPLSLPVTLGQPASISCSGEKLSDKYVHWYQQRPGQSPRMLIYENDRRPSGVPDRFSGSNSGNDATLKISRVEAEDVGVYFCQFWDSTNSAVFGGGTKVEIK
B13: BKM0138 (scFv)
scFv: EIQLLESGGGLVQPGGSLRLSCAVSGFSITTTGYHWNWVRQAPGKGLEWVGYIYSSGSTSYNPSLKSRFTISRDTSKNTFYLQMNSLRAEDTAVYYCARGDWHYFDYWGQGTMVTVSSGGGGSGGGGSGGGGSGGGGSDSVTTQSPLSLPVTLGQPASISCSGEKLSDKYVHWYQQRPGQSPRMLIYENDRRPSGVPDRFSGSNSGNDATLKISRVEAEDVGVYFCQFWDSTASAVFGGGTKVEIK
notes: also called BJM0411 VL-N95A
B14: BKM0139 (scFv)
scFv: B13 scFv with D230A, A233N
notes: also called BJM0411 VL-D92A
B15: BKM0142 (scFv)
scFv: B13 scFv with N62A, A233N
notes: also called BJM0411 VH-N60A
B16: BKM0144 (scFv)
scFv: B13 scFv with N62A, D230A
notes: also called BJM0411 VH-N60A-VL-D92A-N95A
B17: BKM0140 (scFv)
scFv: EIQLLESGGGLVQPGGSLRLSCAVSGFSITTTGYHWNWVRQAPGKGLEWVGYIYSSGSTSYNPSLKSRFTISRDTSKNTFYLQMNSLRAEDTAVYYCARGDWHYFDYWGQGTMVTVSSGGGGSGGGGSGGGGSGGGGSSSETTQPPSVSVSPGQTASITCSGEKLSDKYVHWYQQKPGQSPVMVIYENDRRPSGIPERFSGSNSGNTATLTISGTQAMDEADYFCQFWASTNSAVFGGGTQLTVL
notes: also called BJM0407 VL-D92A
B18: BKM0141 (scFv)
scFv: B17 scFv with A229D, N232A
notes: also called BJM0407 VL-N95A
B19: BKM0143 (scFv)
scFv: B17 scFv with N62A, A229D
notes: also called BJM0407 VH-N60A
B20: BKM0145 (scFv)
scFv: B17 scFv with N62A, N232A
notes: also called BJM0407 VH-N60A-VL-D92A-N95A

target: T2, human TRBC2 (hTRBC2), construct BIM0445 (human, UniProt A0A5B9 1-129, limits assumed); test: SPR (BIAcore T200), antibody captured via anti-human Fc
T2 construct: also called BIM0445 (hTRBC2)
T2 sequence (A0A5B9 1-129 limits assumed): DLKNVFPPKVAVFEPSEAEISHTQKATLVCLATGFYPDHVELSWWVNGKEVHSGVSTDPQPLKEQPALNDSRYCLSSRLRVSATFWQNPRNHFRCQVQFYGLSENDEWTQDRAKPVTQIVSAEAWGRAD

Binder | binding result
B1 | no binding
B2 | no binding
B3 | no binding
B4 | no binding
B5 | no binding
B6 | no binding
B7 | no binding
B8 | no binding

target: T3, human TRBC2 (construct not named) (human, UniProt A0A5B9 1-129, limits assumed); test: SPR, bispecific captured via anti-human Fc on CM5, hTRBC2 from 125 nM in two-fold dilutions, 1:1 fit
T3 construct: also called hTRBC2
Description: In this example, surface plasmon resonance assay was performed to check binding of anti-TRBC2xNKp30 bispecific antibodies (bispecifics) to either hTRBC2, hTRBC1 or hNKp30 proteins. […] The bispecific antibodies may or may not have an N297A mutation in their Fc regions. FIG. 31B represents a design for monovalent TRBC2 control. Briefly, TRBC2xNKp30 bispecifics at 2 ug/mL were immobilized on CM5 chip via anti-human Fc antibody to 70 RU. Human TRBC2 or human TRBC1 antigens were diluted to 125 nM and then serially diluted two-fold. Association was 300 seconds and dissociation were 600 seconds. This assay was run in 1 x HBS-EP+ Buffer pH 7.4 and 25 C. The data was fit using a 1:1 binding model assess binding of bispecifics to NKp30, human NKp30 at 2 ug/mL was immobilized on CM5 chip via Anti-mouse Fc antibody to 70 RU. TRBC2xNKp30 bispecifics were diluted to 50 nM and then serially diluted two-fold. Association was 300 seconds and dissociation were 600 seconds. This assay was run in 1 x HBS-EP+ Buffer pH 7.4 and 25 C. The data was fit using a 1:1 binding model.

T3 sequence (A0A5B9 1-129 limits assumed): as above

Binder | Kd
B9 | 148 nM
B10 | 92 nM

target: T4, human TRBC1 (hTRBC1), construct BIM0443 (human, UniProt P01850 1-129, limits assumed); test: SPR (BIAcore T200), antibody captured via anti-human Fc on CM5, hTRBC1 BIM0443 injected 15.6-500 nM, 1:1 fit
T4 construct: also called Human TRBC1 (BIM0443); BIM0443 (hTRBC1)
Description: (§1) In this example, a series of exemplary anti-TRBC1 antibody molecules were analyzed for their binding affinity for TRBC1. Briefly, surface plasmon resonance (SPR) measurements were performed by using the BIAcore T200. Each of the exemplary anti-TRBC1 antibody constructs was immobilized on a CM5 chip via anti-human Fc antibody to a response of 50 RU. […] The data was fit using a 1:1 binding model.

T4 sequence (P01850 1-129 limits assumed): as the sequence (A0A5B9 1-129 limits assumed) above, with K3N, N4K, K9E, Y36F counted along it

Binder | Kd
B1 | 75 nM
B2 | 10 nM
B3 | 75 nM
B4 | 138 nM
B5 | 360 nM
B6 | 180 nM
B7 | 317 nM
B8 | 690 nM

target: T1, Human NKp30, construct BKM0179; test: SPR (BIAcore T200), human NKp30 BKM0179 captured via anti-mouse Fc on CM5, antibody injected 3.9-125 nM, 1:1 fit
Description: as §1, with “anti-NKp30” for “anti-TRBC1”, “NKp30.” for “TRBC1.”, “Human NKp30 (BKM0179)” for “Each of the exemplary anti-TRBC1 antibody constructs”, “anti-mouse” for “anti-human”

Binder | Kd
B11 | 1.48 nM
B12 | 1.26 nM
B13 | 3.2 nM
B14 | 3.2 nM
B15 | 1.28 nM
B16 | 6.4 nM
B17 | 3.3 nM
B18 | 3 nM
B19 | 1.45 nM
B20 | 4.2 nM

From patent US20230357395A1 (MARENGO THERAPEUTICS, published 2023)
